Experimental data from paper PMC8327139, “Nodal modulator (NOMO) is required to sustain endoplasmic reticulum morphology” (The Journal of Biological Chemistry, 2021).

Target: the molecule itself
Assay: SEC-MALS; NOMO1-FLAG on a Superose 6 column, RT, 50 mM MES pH 6.0, 150 mM KCl, 5 mM MgCl2, 5 mM CaCl2, 2% glycerol, 0.05% DDM; protein conjugate analysis to correct for detergent

B1: NOMO1-FLAG (nodal modulator 1, full length, C-terminal FLAG tag) (natural protein, human, UniProt Q15155 32-1222, looked up)
chain: SEDIVVGCGGFVKSDVEINYSLIEIKLYTKHGTLKYQTDCAPNNGYFMIPLYDKGDFILKIEPPLGWSFEPTTVELHVDGVSDICTKGGDINFVFTGFSVNGKVLSKGQPLGPAGVQVSLRNTGTEAKIQSTVTQPGGKFAFFKVLPGDYEILATHPTWALKEASTTVRVTNSNANAASPLIVAGYNVSGSVRSDGEPMKGVKFLLFSSLVTKEDVLGCNVSPVPGFQPQDESLVYLCYTVSREDGSFSFYSLPSGGYTVIPFYRGERITFDVAPSRLDFTVEHDSLKIEPVFHVMGFSVTGRVLNGPEGDGVPEAVVTLNNQIKVKTKADGSFRLENITTGTYTIHAQKEHLYFETVTIKIAPNTPQLADIIATGFSVCGQISIIRFPDTVKQMNKYKVVLSSQDKDKSLVTVETDAHGSFCFKAKPGTYKVQVMVPEAETRAGLTLKPQTFPLTVTNRPMMDVAFVQFLASVSGKVSCLDTCGDLLVTLQSLSRQGEKRSLQLSGKVNAMTFTFDNVLPGKYKISIMHEDWCWKNKSLEVEVLEDDMSAVEFRQTGYMLRCSLSHAITLEFYQDGNGRENVGIYNLSKGVNRFCLSKPGVYKVTPRSCHRFEQAFYTYDTSSPSILTLTAIRHHVLGTITTDKMMDVTVTIKSSIDSEPALVLGPLKSVQELRREQQLAEIEARRQEREKNGNEEGEERMTKPPVQEMVDELQGPFSYDFSYWARSGEKITVTPSSKELLFYPPSMEAVVSGESCPGKLIEIHGKAGLFLEGQIHPELEGVEIVISEKGASSPLITVFTDDKGAYSVGPLHSDLEYTVTSQKEGYVLTAVEGTIGDFKAYALAGVSFEIKAEDDQPLPGVLLSLSGGLFRSNLLTQDNGILTFSNLSPGQYYFKPMMKEFRFEPSSQMIEVQEGQNLKITITGYRTAYSCYGTVSSLNGEPEQGVAMEAVGQNDCSIYGEDTVTDEEGKFRLRGLLPGCVYHVQLKAEGNDHIERALPHHRVIEVGNNDIDDVNIIVFRQINQFDLSGNVITSSEYLPTLWVKLYKSENLDNPIQTVSLGQSLFFHFPPLLRDGENYVVLLDSTLPRSQYDYILPQVSFTAVGYHKHITLIFNPTRKLPEQDIAQGSYIALPLTLLVLLAGYNHDKLIPLLLQLTSRLQGVRALGQAASDNSGPEDAKRQAKKQKTRRT
notes: Nodal modulator 1 (NOMO1), human, type I transmembrane glycoprotein: luminal domain (1124 residues), TM domain, 40-residue cytosolic tail; cloned from a Dharmacon plasmid into pcDNA3.1+; 135 kDa with the tag; Membrane protein kept in dodecyl maltoside (0.05% DDM); also called full-length NOMO1-FLAG; full-length NOMO; source: Expi293F, transfected, purified in DDM (anti-FLAG M2 beads, FLAG peptide …)
**Q.** B1 was tested. Which “stoichiometry N” value did it give?
**A.** 2
